According to the supplement of paper PMC10567573:

B1: ZNF449 (parent)
chain: EPHKCPECGKRFLRSSDLYRHQRL

Variants of: B1
Experiment: protein stability index of a GFP-peptide fusion (GPS, HEK-293T) (PSI 1-6); higher = more stable
Conditions: c terminus: a fixed tail appended
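Further: lentivirally expressed fusions sorted by FACS into six bins by GFP to DsRed ratio, PSI derived from sequencing read proportions per bin multiplied by bin number.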

Variant | protein stability index
EPHKCPECGKRILRSSDLYRHQRL | 2.1
EPHKCPECGKRMLRSSDLYRHQRL | 2.45
EPHKCPECGKRGLRSSDLYRHQRL | 2.12
EPHKCPECGKRCLRSSDLYRHQRL | 1.67
EPHKCPECGKRTLRSSDLYRHQRL | 2.32
EPHKCPECGKRRLRSSDLYRHQRL | 2.15
EPHKCPECGKRYLRSSDLYRHQRL | 2.72
EPHKCPECGKRDLRSSDLYRHQRL | 2.13
EPHKCPECGKRALRSSDLYRHQRL | 1.86
EPHKCPECGKRSLRSSDLYRHQRL | 1.86
EPHKCPECGKRPLRSSDLYRHQRL | 2.51
EPHKCPECGKRWLRSSDLYRHQRL | 1.93
EPHKCPECGKRQLRSSDLYRHQRL | 2.03
EPHKCPECGKRHLRSSDLYRHQRL | 3.73
EPHKCPECGKRLLRSSDLYRHQRL | 2.54
EPHKCPECGKRELRSSDLYRHQRL | 2.34
EPHKCPECGKRKLRSSDLYRHQRL | 2.88
EPHKCPECGKRNLRSSDLYRHQRL | 2.06
EPHKCPECGKRVLRSSDLYRHQRL | 1.95
EPHKCPECGKRFLPSSDLYRHQRL | 2.2
EPHKCPECGKRFLKSSDLYRHQRL | 4.11
EPHKCPECGKRFLASSDLYRHQRL | 3.89
EPHKCPECGKRFLWSSDLYRHQRL | 2.75
EPHKCPECGKRFLISSDLYRHQRL | 2.95

Variant | protein stability index
EPHKCPECGKRFLVSSDLYRHQRL | 3.2
EPHKCPECGKRFLGSSDLYRHQRL | 2.33
EPHKCPECGKRFLLSSDLYRHQRL | 3.51
EPHKCPECGKRFLNSSDLYRHQRL | 4.78
EPHKCPECGKRFLYSSDLYRHQRL | 3.59
EPHKCPECGKRFLDSSDLYRHQRL | 4.29
EPHKCPECGKRFLQSSDLYRHQRL | 3.36
EPHKCPECGKRFLFSSDLYRHQRL | 3.76
EPHKCPECGKRFLMSSDLYRHQRL | 3.61
EPHKCPECGKRFLSSSDLYRHQRL | 4.61
EPHKCPECGKRFLTSSDLYRHQRL | 4.61
EPHKCPECGKRFLCSSDLYRHQRL | 3.86
EPHKCPECGKRFLESSDLYRHQRL | 3.84
EPHKCPECGKRFLHSSDLYRHQRL | 3.97
EPHKCPECGKRFGRSSDLYRHQRL | 3.88
EPHKCPECGKRFARSSDLYRHQRL | 4
EPHKCPECGKRFKRSSDLYRHQRL | 4.5
EPHKCPECGKRFDRSSDLYRHQRL | 4.82
EPHKCPECGKRFIRSSDLYRHQRL | 3.5
EPHKCPECGKRFHRSSDLYRHQRL | 3.85
EPHKCPECGKRFFRSSDLYRHQRL | 3.35
EPHKCPECGKRFRRSSDLYRHQRL | 3.99
EPHKCPECGKRFMRSSDLYRHQRL | 4.48
EPHKCPECGKRFTRSSDLYRHQRL | 4.46

Variant | protein stability index
EPHKCPECGKRFQRSSDLYRHQRL | 4.66
EPHKCPECGKRFERSSDLYRHQRL | 4.78
EPHKCPECGKRFWRSSDLYRHQRL | 3.55
EPHKCPECGKRFCRSSDLYRHQRL | 4.05
EPHKCPECGKRFSRSSDLYRHQRL | 3.92
EPHKCPECGKRFNRSSDLYRHQRL | 4.08
EPHKCPECGKRFVRSSDLYRHQRL | 4.32
EPHKCPECGKRFYRSSDLYRHQRL | 4.09
EPHKCPECGKRFPRSSDLYRHQRL | 3.74
EPHKCPECYKRFLRSSDLYRHQRL | 2.8
EPHKCPECLKRFLRSSDLYRHQRL | 2.3
EPHKCPECWKRFLRSSDLYRHQRL | 2.12
EPHKCPECFKRFLRSSDLYRHQRL | 2.52
EPHKCPECNKRFLRSSDLYRHQRL | 3.14
EPHKCPECEKRFLRSSDLYRHQRL | 3.15
EPHKCPECDKRFLRSSDLYRHQRL | 2.99
EPHKCPECKKRFLRSSDLYRHQRL | 2.61
EPHKCPECSKRFLRSSDLYRHQRL | 3.36
EPHKCPECCKRFLRSSDLYRHQRL | 2.18
EPHKCPECIKRFLRSSDLYRHQRL | 2.65
EPHKCPECMKRFLRSSDLYRHQRL | 2.72
EPHKCPECVKRFLRSSDLYRHQRL | 2.54
EPHKCPECRKRFLRSSDLYRHQRL | 2.31
EPHKCPECPKRFLRSSDLYRHQRL | 2.82

Variant | protein stability index
EPHKCPECQKRFLRSSDLYRHQRL | 3.16
EPHKCPECTKRFLRSSDLYRHQRL | 2.32
EPHKCPECHKRFLRSSDLYRHQRL | 3.08
EPHKCPECAKRFLRSSDLYRHQRL | 2.24
EPHKYPECGKRFLRSSDLYRHQRL | 3.14
EPHKCRECGKRFLRSSDLYRHQRL | 3.1
EPHKCLECGKRFLRSSDLYRHQRL | 3.38
EPHKCGECGKRFLRSSDLYRHQRL | 3.5
EPHKCNECGKRFLRSSDLYRHQRL | 4.17
EPHKCFECGKRFLRSSDLYRHQRL | 3.22
EPHKCTECGKRFLRSSDLYRHQRL | 3.52
EPHKCYECGKRFLRSSDLYRHQRL | 3.53
EPHKCAECGKRFLRSSDLYRHQRL | 3.75
EPHKCHECGKRFLRSSDLYRHQRL | 3.91
EPHKCDECGKRFLRSSDLYRHQRL | 4.46
EPHKCQECGKRFLRSSDLYRHQRL | 3.68
EPHKCSECGKRFLRSSDLYRHQRL | 3.69
EPHKCIECGKRFLRSSDLYRHQRL | 3.23
EPHKCWECGKRFLRSSDLYRHQRL | 3.31
EPHKCMECGKRFLRSSDLYRHQRL | 3.88
EPHKCKECGKRFLRSSDLYRHQRL | 3.62
EPHKCEECGKRFLRSSDLYRHQRL | 4.19
EPHKCCECGKRFLRSSDLYRHQRL | 3.75
EPHKCVECGKRFLRSSDLYRHQRL | 3.57

Variant | protein stability index
EPHKCPEMGKRFLRSSDLYRHQRL | 3.05
EPHKCPEQGKRFLRSSDLYRHQRL | 3.43
EPHKCPESGKRFLRSSDLYRHQRL | 3.37
EPHKCPEIGKRFLRSSDLYRHQRL | 3.06
EPHKCPEHGKRFLRSSDLYRHQRL | 3.26
EPHKCPEAGKRFLRSSDLYRHQRL | 3.24
EPHKCPETGKRFLRSSDLYRHQRL | 3.36
EPHKCPELGKRFLRSSDLYRHQRL | 3.01
EPHKCPEEGKRFLRSSDLYRHQRL | 4.02
EPHKCPEFGKRFLRSSDLYRHQRL | 2.72
EPHKCPEVGKRFLRSSDLYRHQRL | 3.25
EPHKCPENGKRFLRSSDLYRHQRL | 3.16
EPHKCPEPGKRFLRSSDLYRHQRL | 3.51
EPHKCPEDGKRFLRSSDLYRHQRL | 4.03
EPHKCPEYGKRFLRSSDLYRHQRL | 3.24
EPHKCPEGGKRFLRSSDLYRHQRL | 3.3
EPHKCPEKGKRFLRSSDLYRHQRL | 3.75
EPHKCPEWGKRFLRSSDLYRHQRL | 2.64
EPHKCPERGKRFLRSSDLYRHQRL | 3.08
EPHKCPECGKCFLRSSDLYRHQRL | 4.31
EPHKCPECGKVFLRSSDLYRHQRL | 4.57
EPHKCPECGKWFLRSSDLYRHQRL | 4.26
EPHKCPECGKLFLRSSDLYRHQRL | 4.57
EPHKCPECGKEFLRSSDLYRHQRL | 4.84

Variant | protein stability index
EPHKCPECGKNFLRSSDLYRHQRL | 4.24
EPHKCPECGKKFLRSSDLYRHQRL | 4.16
EPHKCPECGKDFLRSSDLYRHQRL | 4.27
EPHKCPECGKPFLRSSDLYRHQRL | 3.68
EPHKCPECGKQFLRSSDLYRHQRL | 4.44
EPHKCPECGKIFLRSSDLYRHQRL | 4.63
EPHKCPECGKYFLRSSDLYRHQRL | 4.39
EPHKCPECGKHFLRSSDLYRHQRL | 4.07
EPHKCPECGKGFLRSSDLYRHQRL | 4
EPHKCPECGKFFLRSSDLYRHQRL | 4.41
EPHKCPECGKSFLRSSDLYRHQRL | 5.13
EPHKCPECGKMFLRSSDLYRHQRL | 4.26
EPHKCPECGKTFLRSSDLYRHQRL | 5.01
EPHKCPECGKAFLRSSDLYRHQRL | 4.71
EPHKCPECGDRFLRSSDLYRHQRL | 2.44
EPHKCPECGQRFLRSSDLYRHQRL | 4.08
EPHKCPECGTRFLRSSDLYRHQRL | 3.5
EPHKCPECGWRFLRSSDLYRHQRL | 2.13
EPHKCPECGRRFLRSSDLYRHQRL | 3.55
EPHKCPECGERFLRSSDLYRHQRL | 3.63
EPHKCPECGFRFLRSSDLYRHQRL | 2.52
EPHKCPECGCRFLRSSDLYRHQRL | 2.48
EPHKCPECGYRFLRSSDLYRHQRL | 2.5
EPHKCPECGHRFLRSSDLYRHQRL | 3.15

Variant | protein stability index
EPHKCPECGVRFLRSSDLYRHQRL | 3.31
EPHKCPECGLRFLRSSDLYRHQRL | 3.65
EPHKCPECGNRFLRSSDLYRHQRL | 2.52
EPHKCPECGSRFLRSSDLYRHQRL | 3.21
EPHKCPECGIRFLRSSDLYRHQRL | 3.32
EPHKCPECGMRFLRSSDLYRHQRL | 3.99
EPHKCPECGPRFLRSSDLYRHQRL | 2.33
EPHKCPECGGRFLRSSDLYRHQRL | 2.11
EPHKCPECGARFLRSSDLYRHQRL | 3.97
EPHKCPTCGKRFLRSSDLYRHQRL | 3.82
EPHKCPICGKRFLRSSDLYRHQRL | 3.3
EPHKCPHCGKRFLRSSDLYRHQRL | 3.65
EPHKCPVCGKRFLRSSDLYRHQRL | 3.44
EPHKCPDCGKRFLRSSDLYRHQRL | 4.12
EPHKCPFCGKRFLRSSDLYRHQRL | 3.25
EPHKCPKCGKRFLRSSDLYRHQRL | 4.14
EPHKCPWCGKRFLRSSDLYRHQRL | 4.05
EPHKCPMCGKRFLRSSDLYRHQRL | 3.65
EPHKCPYCGKRFLRSSDLYRHQRL | 3.66
EPHKCPNCGKRFLRSSDLYRHQRL | 3.81
EPHKCPCCGKRFLRSSDLYRHQRL | 4.37
EPHKCPACGKRFLRSSDLYRHQRL | 3.29
EPHKCPSCGKRFLRSSDLYRHQRL | 4.11
EPHKCPRCGKRFLRSSDLYRHQRL | 3.17

Variant | protein stability index
EPHKCPLCGKRFLRSSDLYRHQRL | 3.51
EPHKCPPCGKRFLRSSDLYRHQRL | 2.21
EPHKCPGCGKRFLRSSDLYRHQRL | 3.74
EPHKCPQCGKRFLRSSDLYRHQRL | 3.62
EPHKCPECGKRFLRTSDLYRHQRL | 3.9
EPHKCPECGKRFLRPSDLYRHQRL | 3.25
EPHKCPECGKRFLRHSDLYRHQRL | 3.64
EPHKCPECGKRFLRQSDLYRHQRL | 4.11
EPHKCPECGKRFLRLSDLYRHQRL | 3.86
EPHKCPECGKRFLRKSDLYRHQRL | 4.27
EPHKCPECGKRFLRISDLYRHQRL | 3.27
EPHKCPECGKRFLRCSDLYRHQRL | 3.42
EPHKCPECGKRFLRESDLYRHQRL | 4.54
EPHKCPECGKRFLRNSDLYRHQRL | 3.51
EPHKCPECGKRFLRMSDLYRHQRL | 3.98
EPHKCPECGKRFLRRSDLYRHQRL | 3.53
EPHKCPECGKRFLRASDLYRHQRL | 4.16
EPHKCPECGKRFLRFSDLYRHQRL | 3.51
EPHKCPECGKRFLRGSDLYRHQRL | 3.53
EPHKCPECGKRFLRDSDLYRHQRL | 3.81
